Reference: patent US20260109758A1 (BIOSION, published 2026)

Tests used:
[1] = target: T1, biotin-labeled human TSLP-Fc (human, biotin-labeled); experiment: cell-based blocking FACS: antibody pre-mixed with biotin human TSLP-Fc; blocked binding to cell-surface TSLPR/IL7Ra on HEK293T-TSLPR/IL7R/STAT5-Luc 5C5 cells
T1 construct: also called TSLP-Fc protein; TSLP-Fc-biotin

[2] = target: T2, human IL4Rα expressed on 293F-IL4Rα cell surface (human, UniProt P24394 26-825); experiment: flow cytometry on 293F-IL4Rα cells, PE anti-human IgG Fc
T2 construct: whole, on cells; also called human IL4Rα-expressing cells; cell surface IL4R

[3] = target: T3, recombinant human TSLP-his (human, UniProt Q969D9 29-159, biotin-labeled in the ELISAs); experiment: capture ELISA: antibody captured on anti-human IgG Fc F(ab')2, biotin human TSLP-his, SA-HRP
T3 construct: In-house made; not shown: His tag at the C-terminus
Experimental: Briefly, 96-well micro plates were coated with 100 μL 2 μg/mL AffiniPure F(ab′)₂ Fragment Goat Anti-Human IgG, Fey fragment specific (Jackson Immuno Research, Cat #109-006-008) in PBS and incubated overnight at 4° C. Plates were washed 4 times with wash buffer (PBS+0.05% Tween-20, PBST) and then blocked with 200 μL/well blocking buffer (5% w/v non-fatty milk in PBST) for 2 hours at 37° C. […] After the final wash, the plates were incubated with 100 μL/well TMB (Innoreagents). The reaction was stopped 15 minutes later at room temperature with 50 μL/well 1M H₂SO₄, and the absorbance of each well was read on a microplate reader using dual wavelength mode with 450 nm for TMB and 630 nm as the reference wavelength. The OD (450-630) values were plotted against antibody concentration. Data was analyzed using Graphpad Prism and EC₅₀ values were reported.

[4] = target: T4, recombinant human IL4Rα-his (human, UniProt P24394 26-231, limits assumed, biotin-labeled in the capture ELISA); experiment: capture ELISA: antibody captured on anti-human IgG Fc F(ab')2, biotin human IL4Rα-his, SA-HRP
T4 construct: In-house made; not shown: His tag at the C-terminus

[5] = target: human IL4Rα on HEK293T-IL4R/STAT6/STAT6-Luc LB2 cells (human, UniProt P24394 26-825); experiment: cell-based or functional assay
[6] = target: T2, human IL4Rα expressed on 293F-IL4Rα …; experiment: cell-based blocking FACS on 293F-IL4Rα cells; blocked ligand biotin human IL4

IC50 [1]	EC50 [2]	EC50 [3]	EC50 [4]	Inhibition on IL4 induced STAT6 phosphorylation (IC50, nM) [5]	Inhibition on IL13 induced STAT6 phosphorylation (IC50, nM) [5]	IC50 [6]	Binder
1.73 nM	0.18 nM	0.169 nM	0.0218 nM	0.00703 nM	0.0289 nM	0.137 nM	BSI-502-001 (bispecific antibody, human IgG1, kappa, huC2C1A1A1-V15 IgG with an anti-TSLP scFv (hu1C5F12E9-V8, VH-VL) at the C-terminus of the heavy chain) heavy: EVQLVESGGGLVQPGGSLRLSCAASGFTFSTYGMSWVRQAPGKGLVWVATINSNGGSTSYPDSVKGRFTISRDNAKNTLYLQMNSLRAEDTAVYYCARFFRFRNAMDYWGQGTLVTVSSASTKGPSVFPLAPSSKSTSGGTAALGCLVKDYFPEPVTVSWNSGALTSGVHTFPAVLQSSGLYSLSSVVTVPSSSLGTQTYICNVNHKPSNTKVDKKVEPKSCDKTHTCPPCPAPEAQGGPSVFLFPPKPKDTLYITREPEVTCVVVDVSHEDPEVKFNWYVDGVEVHNAKTKPREEQYNSTYRVVSVLTVLHQDWLNGKEYKCQVSNKALPAPIEKTISKAKGQPREPQVYTLPPSRDELTKNQVSLTCLVKGFYPSDIAVEWESNGQPENNYKTTPPVLDSDGSFFLYSKLTVDKSRWQQGNVFSCSVMHEALHNHYTQKSLSLSPGKGGGGSGGGGSQVQLVQSGAEVKKPGASVKVSCKASGYTFTTYWMHWVRQAPGQGLEWMGVIDPSDSDTTYNQKFKGRVTMTRDTSTSTVYMELSSLRSEDTAVYYCTRSLDGYYDYWGQGTLVTVSSGGGGSGGGGSGGGGSGGGGSDIQMTQSPSSLSASVGDRVTITCRPTENIYSYLAWYQQKPGKAPKLLIYFARTLAEGVPSRFSGSGSGTDFTLTISSLQPEDFATYYCQHHYGTPWTFGGGTKVEIK light: DIQMTQSPSSLSASVGDRVTITCRTSENIYSYLAWYQQKPGKAPKFLVYNAKTLAEGVPSRFSGSGSGTDFTLTISSLQPEDFATYYCQHYYGPPTWTFGQGTKVEIKRTVAAPSVFIFPPSDEQLKSGTASVVCLLNNFYPREAKVQWKVDNALQSGNSQESVTEQDSKDSTYSLSSTLTLSKADYEKHKVYACEVTHQGLSSPVTKSFNRGEC
4.23 nM	0.173 nM	0.369 nM		0.0129 nM	0.031 nM	0.144 nM	BSI-502-002 (bispecific antibody, human IgG1, kappa, huC2C1A1A1-V15 IgG with an anti-TSLP scFv (VL-VH) at the C-terminus of the heavy chain; AQQ and YTE already stand in the entry) heavy: EVQLVESGGGLVQPGGSLRLSCAASGFTFSTYGMSWVRQAPGKGLVWVATINSNGGSTSYPDSVKGRFTISRDNAKNTLYLQMNSLRAEDTAVYYCARFFRFRNAMDYWGQGTLVTVSSASTKGPSVFPLAPSSKSTSGGTAALGCLVKDYFPEPVTVSWNSGALTSGVHTFPAVLQSSGLYSLSSVVTVPSSSLGTQTYICNVNHKPSNTKVDKKVEPKSCDKTHTCPPCPAPEAQGGPSVFLFPPKPKDTLYITREPEVTCVVVDVSHEDPEVKFNWYVDGVEVHNAKTKPREEQYNSTYRVVSVLTVLHQDWLNGKEYKCQVSNKALPAPIEKTISKAKGQPREPQVYTLPPSRDELTKNQVSLTCLVKGFYPSDIAVEWESNGQPENNYKTTPPVLDSDGSFFLYSKLTVDKSRWQQGNVFSCSVMHEALHNHYTQKSLSLSPGKGGGGSGGGGSDIQMTQSPSSLSASVGDRVTITCRPTENIYSYLAWYQQKPGKAPKLLIYFARTLAEGVPSRFSGSGSGTDFTLTISSLQPEDFATYYCQHHYGTPWTFGGGTKVEIKGGGGSGGGGSGGGGSGGGGSQVQLVQSGAEVKKPGASVKVSCKASGYTFTTYWMHWVRQAPGQGLEWMGVIDPSDSDTTYNQKFKGRVTMTRDTSTSTVYMELSSLRSEDTAVYYCTRSLDGYYDYWGQGTLVTVSS light: DIQMTQSPSSLSASVGDRVTITCRTSENIYSYLAWYQQKPGKAPKFLVYNAKTLAEGVPSRFSGSGSGTDFTLTISSLQPEDFATYYCQHYYGPPTWTFGQGTKVEIKRTVAAPSVFIFPPSDEQLKSGTASVVCLLNNFYPREAKVQWKVDNALQSGNSQESVTEQDSKDSTYSLSSTLTLSKADYEKHKVYACEVTHQGLSSPVTKSFNRGEC
1.31 nM	0.169 nM	0.103 nM	0.0346 nM	0.0318 nM	0.0276 nM	0.168 nM	BSI-502-004 (bispecific antibody, human IgG1, kappa, hu1C5F12E9-V8 IgG with an anti-IL4R scFv (VL-VH) at the N-terminus of the heavy chain; AQQ and YTE already stand in the entry) heavy: DIQMTQSPSSLSASVGDRVTITCRTSENIYSYLAWYQQKPGKAPKFLVYNAKTLAEGVPSRFSGSGSGTDFTLTISSLQPEDFATYYCQHYYGPPTWTFGQGTKVEIKGGGGSGGGGSGGGGSGGGGSEVQLVESGGGLVQPGGSLRLSCAASGFTFSTYGMSWVRQAPGKGLVWVATINSNGGSTSYPDSVKGRFTISRDNAKNTLYLQMNSLRAEDTAVYYCARFFRFRNAMDYWGQGTLVTVSSGGGGSGGGGSQVQLVQSGAEVKKPGASVKVSCKASGYTFTTYWMHWVRQAPGQGLEWMGVIDPSDSDTTYNQKFKGRVTMTRDTSTSTVYMELSSLRSEDTAVYYCTRSLDGYYDYWGQGTLVTVSSASTKGPSVFPLAPSSKSTSGGTAALGCLVKDYFPEPVTVSWNSGALTSGVHTFPAVLQSSGLYSLSSVVTVPSSSLGTQTYICNVNHKPSNTKVDKKVEPKSCDKTHTCPPCPAPEAQGGPSVFLFPPKPKDTLYITREPEVTCVVVDVSHEDPEVKFNWYVDGVEVHNAKTKPREEQYNSTYRVVSVLTVLHQDWLNGKEYKCQVSNKALPAPIEKTISKAKGQPREPQVYTLPPSRDELTKNQVSLTCLVKGFYPSDIAVEWESNGQPENNYKTTPPVLDSDGSFFLYSKLTVDKSRWQQGNVFSCSVMHEALHNHYTQKSLSLSPG light: DIQMTQSPSSLSASVGDRVTITCRPTENIYSYLAWYQQKPGKAPKLLIYFARTLAEGVPSRFSGSGSGTDFTLTISSLQPEDFATYYCQHHYGTPWTFGGGTKVEIKRTVAAPSVFIFPPSDEQLKSGTASVVCLLNNFYPREAKVQWKVDNALQSGNSQESVTEQDSKDSTYSLSSTLTLSKADYEKHKVYACEVTHQGLSSPVTKSFNRGEC
